Test results: article doi:10.1101/2022.03.07.483330 (bioRxiv, 2022)

Experiments:
[1] = molecular target: human wild-type DLL4 (N-EGF5, residues 27-400) (human, UniProt Q9NR61 27-400); assay: SPR
[2] = molecular target: DLL4.v2 (N-EGF5) (human, UniProt Q9NR61 27-400, N257P | T271L | F280Y | S301R | Q305P); assay: SPR
Sequence of DLL4.v2 (N-EGF5) (Q9NR61 27-400 N257P/T271L/F280Y/S301R/Q305P): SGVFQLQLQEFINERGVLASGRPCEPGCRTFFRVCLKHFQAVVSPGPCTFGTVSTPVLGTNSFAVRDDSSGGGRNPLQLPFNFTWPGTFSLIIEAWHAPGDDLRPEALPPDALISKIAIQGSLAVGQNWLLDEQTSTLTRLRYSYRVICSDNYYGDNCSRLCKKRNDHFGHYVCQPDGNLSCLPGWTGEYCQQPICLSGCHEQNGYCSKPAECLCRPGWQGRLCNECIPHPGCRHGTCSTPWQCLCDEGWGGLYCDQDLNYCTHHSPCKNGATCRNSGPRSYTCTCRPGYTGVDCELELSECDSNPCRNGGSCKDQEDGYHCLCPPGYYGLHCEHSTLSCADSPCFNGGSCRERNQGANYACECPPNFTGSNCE

Sequence of human wild-type DLL4 (N-EGF5, residues 27-400) (Q9NR61 27-400): as the sequence (Q9NR61 27-400 N257P/T271L/F280Y/S301R/Q305P) above, with P231N, L245T, Y254F, R275S, P279Q counted along it

binding result [1] | binding result [2] | Binder
binds | binds | human Notch2 (EGF6-13, residues 221-530), biotinylated (domain or fragment, UniProt Q04721 221-530, looked up, biotin on the C-terminal BAP-tag (BirA)) LYVPCAPSPCVNGGTCRQTGDFTFECNCLPGFEGSTCERNIDDCPNHRCQNGGVCVDGVNTYNCRCPPQWTGQFCTEDVDECLLQPNACQNGGTCANRNGGYGCVCVNGWSGDDCSENIDDCAFASCTPGSTCIDRVASFSCMCPEGKAGLLCHLDDACISNPCHKGALCDTNPLNGQYICTCPQGYKGADCTEDVDECAMANSNPCEHAGKCVNTDGAFHCECLKGYAGPRCEMDINECHSDPCQNDATCLDKIGGFTCLCMPGFKGVHCELEINECQSNPCVNNGQCVDKVNRFQCLCPPGFTGPVCQ
binds | binds | mouse Notch1 (EGF6-13, residues 221-526), biotinylated (domain or fragment, UniProt Q01705 221-526, looked up, biotin on the C-terminal BAP-tag (BirA)) PCSPSPCQNGGTCRPTGDTTHECACLPGFAGQNCEENVDDCPGNNCKNGGACVDGVNTYNCRCPPEWTGQYCTEDVDECQLMPNACQNGGTCHNTHGGYNCVCVNGWTGEDCSENIDDCASAACFQGATCHDRVASFYCECPHGRTGLLCHLNDACISNPCNEGSNCDTNPVNGKAICTCPSGYTGPACSQDVDECALGANPCEHAGKCLNTLGSFECQCLQGYTGPRCEIDVNECISNPCQNDATCLDQIGEFQCICMPGYEGVYCEINTDECASSPCLHNGHCMDKINEFQCQCPKGFNGHLCQ
binds | binds | human Notch3 (EGF5-12, residues 197-505), biotinylated (domain or fragment, UniProt Q9UM47 197-505, looked up, biotin on the C-terminal BAP-tag (BirA)) PAVPCAPSPCRNGGTCRQSGDLTYDCACLPGFEGQNCEVNVDDCPGHRCLNGGTCVDGVNTYNCQCPPEWTGQFCTEDVDECQLQPNACHNGGTCFNTLGGHSCVCVNGWTGESCSQNIDDCATAVCFHGATCHDRVASFYCACPMGKTGLLCHLDDACVSNPCHEDAICDTNPVNGRAICTCPPGFTGGACDQDVDECSIGANPCEHLGRCVNTQGSFLCQCGRGYTGPRCETDVNECLSGPCRNQATCLDRIGQFTCICMAGFTGTYCEVDIDECQSSPCVNGGVCKDRVNGFSCTCPSGFSGSTCQ
binds | binds | human Notch4 (EGF7-12, residues 276-511), biotinylated (domain or fragment, UniProt Q99466 276-511, looked up, biotin on the C-terminal BAP-tag (BirA)) NPDNCVSHQCQNGGTCQDGLDTYTCLCPETWTGWDCSEDVDECETQGPPHCRNGGTCQNSAGSFHCVCVSGWGGTSCEENLDDCIAATCAPGSTCIDRVGSFSCLCPPGRTGLLCHLEDMCLSQPCHGDAQCSTNPLTGSTLCLCQPGYSGPTCHQDLDECLMAQQGPSPCEHGGSCLNTPGSFNCLCPPGYTGSRCEADHNECLSQPCHPGSTCLDLLATFHCLCPPGLEGQLCE
